This note sets out measurements from doi:10.1101/2021.06.01.446590.

Experiment [1] deals with human parkin, full-length (human) (UniProt O60260). Briefly: ITC. Background: ITC needs no label: the signal is the heat of the interaction.
Another experiment addresses parkin/pUb (UniProt O60260). Briefly: ITC.

Usually Kd stands for the free concentration of one partner at which half of the binding sites on the other are occupied at equilibrium, for simple one-to-one binding. Read a high Kd as weaker binding.

human parkin, full-length (human), sequence (O60260 whole entry): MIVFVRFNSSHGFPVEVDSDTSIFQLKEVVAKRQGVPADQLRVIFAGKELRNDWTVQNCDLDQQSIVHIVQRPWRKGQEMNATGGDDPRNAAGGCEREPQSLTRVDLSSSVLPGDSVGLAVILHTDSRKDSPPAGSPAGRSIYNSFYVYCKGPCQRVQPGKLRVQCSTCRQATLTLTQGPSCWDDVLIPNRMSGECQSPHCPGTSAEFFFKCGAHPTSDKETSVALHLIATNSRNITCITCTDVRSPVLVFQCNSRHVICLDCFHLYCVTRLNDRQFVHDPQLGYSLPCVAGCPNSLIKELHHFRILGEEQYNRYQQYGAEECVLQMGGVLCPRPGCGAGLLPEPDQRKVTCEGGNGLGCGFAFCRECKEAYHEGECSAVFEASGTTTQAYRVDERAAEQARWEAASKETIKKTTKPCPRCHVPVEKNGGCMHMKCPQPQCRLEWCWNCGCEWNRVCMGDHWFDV
UbcH7~Ub, sequence (P68036 whole entry): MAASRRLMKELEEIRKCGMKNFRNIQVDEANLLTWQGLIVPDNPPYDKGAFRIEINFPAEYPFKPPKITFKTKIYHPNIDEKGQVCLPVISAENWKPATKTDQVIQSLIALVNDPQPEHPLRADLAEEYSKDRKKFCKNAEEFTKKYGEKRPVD
UbcH7~Ub, sequence (P0CG63 1-76): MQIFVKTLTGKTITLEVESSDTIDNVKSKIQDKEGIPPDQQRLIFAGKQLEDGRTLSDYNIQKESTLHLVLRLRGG
parkin/pUb, sequence (O60260 whole entry, chain 1 of 2): as the sequence (O60260 whole entry) above
parkin/pUb, sequence (P0CG63 1-76, chain 2 of 2, further chain): as the sequence (P0CG63 1-76) above

In experiment [1], “mG2^T-pUb (mG2^T-Ub phosphorylated at S65 of Ub by PINK1) (from UniProt Q8IXI2 402-582; P0CG63 1-76)” gave a Kd of 894 nM. “CISD1-pUb (CISD1-Ub phosphorylated at S65 of Ub by PINK1) (from UniProt Q9NZ45 32-108; P0CG63 1-76)”: the Kd in experiment [1] was determined as 428 nM. “UbcH7~Ub (from UniProt P68036 1-154; P0CG63 1-76) (complex)” yielded a Kd in the experiment with parkin/pUb of 40000 nM.
